What was measured:
[1] = biological target: S100P (Homo sapiens) (UniProt P25815); conditions: cited from earlier work
[2] = biological target: S100P (monomeric) (Homo sapiens) (UniProt P25815); conditions: cited from earlier work
[3] = biological target: Human erythropoietin (Epoetin β) (human) (UniProt P01588); experiment: SPR; EPO immobilised by amine coupling on a ProteOn GLH chip (up to 3 000 RU); S100 or CaM as analyte (0.25–4 μM); 25 °C; 10 mM HEPES, 150 mM NaCl, 0.05% TWEEN 20, pH 7.4, 1 mM CaCl2; heterogeneous ligand model, values averaged over analyte concentrations (n = 5)

Human S100A2 protein, sequence (P29034 4-98): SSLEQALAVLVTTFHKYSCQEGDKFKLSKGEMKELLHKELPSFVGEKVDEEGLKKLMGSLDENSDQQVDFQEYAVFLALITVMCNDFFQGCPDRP
interleukin 11, sequence (P20809 22-199): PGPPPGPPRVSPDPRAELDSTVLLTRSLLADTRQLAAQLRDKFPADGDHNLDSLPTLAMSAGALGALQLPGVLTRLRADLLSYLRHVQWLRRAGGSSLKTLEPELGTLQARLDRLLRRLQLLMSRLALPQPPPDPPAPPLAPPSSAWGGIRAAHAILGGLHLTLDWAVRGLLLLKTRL
S100P (monomeric) (Homo sapiens), sequence (P25815 whole entry): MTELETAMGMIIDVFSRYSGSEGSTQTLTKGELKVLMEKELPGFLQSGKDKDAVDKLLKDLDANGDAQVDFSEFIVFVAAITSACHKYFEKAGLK
S100P, sequence (P25815 whole entry): as above
S100P (Homo sapiens), sequence (P25815 whole entry): as above

For S100P (from UniProt P25815), the Kd [1] is listed as 64 nM.
In the case of interleukin 11 (from UniProt P20809), the Kd [2] is given as 1 nM.
Work on “Human S100A2 protein (from UniProt P29034 4-98) (natural protein)” yielded a Kd1 (heterogeneous ligand model, ligand population L1) [3] of 81 nM, a Kd2 (heterogeneous ligand model, ligand population L2) [3] of 1.2 µM and a ka1 (heterogeneous ligand model, ligand population L1) [3] of 2200 M⁻¹ s⁻¹. For the same substance, the ka2 (heterogeneous ligand model, ligand population L2) [3] was 10000 M⁻¹ s⁻¹, the kd1 (heterogeneous ligand model, ligand population L1) [3] was 0.00018 s⁻¹ and the kd2 (heterogeneous ligand model, ligand population L2) [3] was 0.012 s⁻¹.

— PMC8773746
